This assay concerns the target L1-CFP (CFP tagged to the COOH terminus of human L1-CAM) (human) (UniProt P32004). Kind of assay: FRET or BRET.
UniProt P32004, sequence (P32004 20-1257): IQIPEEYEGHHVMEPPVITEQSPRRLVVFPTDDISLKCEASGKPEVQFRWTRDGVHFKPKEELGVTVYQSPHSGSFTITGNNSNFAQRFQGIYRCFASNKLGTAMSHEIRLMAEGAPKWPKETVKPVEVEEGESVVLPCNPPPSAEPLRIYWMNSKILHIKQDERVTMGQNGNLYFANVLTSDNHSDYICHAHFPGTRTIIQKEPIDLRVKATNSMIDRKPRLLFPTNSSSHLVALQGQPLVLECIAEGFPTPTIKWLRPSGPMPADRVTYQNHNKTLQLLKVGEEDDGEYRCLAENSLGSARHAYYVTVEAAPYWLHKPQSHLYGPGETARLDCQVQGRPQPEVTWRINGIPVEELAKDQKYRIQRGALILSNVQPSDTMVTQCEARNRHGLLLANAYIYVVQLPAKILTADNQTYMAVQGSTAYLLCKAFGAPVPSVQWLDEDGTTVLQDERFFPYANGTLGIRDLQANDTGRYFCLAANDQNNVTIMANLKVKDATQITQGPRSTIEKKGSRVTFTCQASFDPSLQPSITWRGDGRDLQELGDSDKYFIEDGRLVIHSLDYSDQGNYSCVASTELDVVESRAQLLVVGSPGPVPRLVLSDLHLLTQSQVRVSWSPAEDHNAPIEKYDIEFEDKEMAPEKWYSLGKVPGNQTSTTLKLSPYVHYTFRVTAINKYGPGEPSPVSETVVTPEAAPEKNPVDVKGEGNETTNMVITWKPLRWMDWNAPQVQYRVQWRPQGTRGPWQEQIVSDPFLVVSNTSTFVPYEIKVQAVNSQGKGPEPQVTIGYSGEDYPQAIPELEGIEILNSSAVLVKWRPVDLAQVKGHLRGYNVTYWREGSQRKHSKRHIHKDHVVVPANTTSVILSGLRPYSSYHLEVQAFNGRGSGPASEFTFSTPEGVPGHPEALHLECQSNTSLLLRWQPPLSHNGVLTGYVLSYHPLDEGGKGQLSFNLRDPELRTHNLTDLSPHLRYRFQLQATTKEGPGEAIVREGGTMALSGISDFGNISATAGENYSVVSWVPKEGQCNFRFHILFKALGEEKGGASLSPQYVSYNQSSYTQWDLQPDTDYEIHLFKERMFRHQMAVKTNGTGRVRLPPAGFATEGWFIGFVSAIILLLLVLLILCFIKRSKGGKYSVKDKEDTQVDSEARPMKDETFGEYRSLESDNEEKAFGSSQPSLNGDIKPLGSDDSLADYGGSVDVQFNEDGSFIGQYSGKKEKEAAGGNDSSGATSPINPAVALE

Regarding “Venus-ankyrinB (Venus tagged to the NH2 terminus of human ankyrinB) (natural protein)”, the percent of ankyrinB clusters with FRET^E >8% was 29.4%.

The values are drawn from publication PMC2173603.
